T1: formyl peptide receptor 2 (FPR2) (UniProt P25090 1-351, limits assumed)
T1 sequence (looked up): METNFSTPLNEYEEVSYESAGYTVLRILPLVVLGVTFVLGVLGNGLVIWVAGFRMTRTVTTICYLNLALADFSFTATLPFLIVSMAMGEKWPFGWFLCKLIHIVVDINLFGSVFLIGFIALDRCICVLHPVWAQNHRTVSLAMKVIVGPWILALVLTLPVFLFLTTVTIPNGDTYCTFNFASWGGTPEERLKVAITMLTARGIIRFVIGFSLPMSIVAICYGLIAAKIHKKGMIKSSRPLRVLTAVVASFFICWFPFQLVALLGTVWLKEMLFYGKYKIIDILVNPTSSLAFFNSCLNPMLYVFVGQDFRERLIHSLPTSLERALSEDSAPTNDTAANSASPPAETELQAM

B1: peptide of SEQ ID NO 117 (peptide)
peptide: RWRYWPM
HELM: PEPTIDE1{[ac].R.W.R.Y.W.P.[dM].[am]}$$$$V2.0
SMILES: CSCC[C@@H](NC(=O)[C@@H]1CCCN1C(=O)[C@H](Cc1c[nH]c2ccccc12)NC(=O)[C@H](Cc1ccc(O)cc1)NC(=O)[C@H](CCCNC(=N)N)NC(=O)[C@H](Cc1c[nH]c2ccccc12)NC(=O)[C@H](CCCNC(=N)N)NC(C)=O)C(N)=O
B2: peptide of SEQ ID NO 104 (peptide)
peptide: RMRYWVM
HELM: PEPTIDE1{[ac].R.M.R.Y.W.V.[dM].[am]}$$$$V2.0
SMILES: CSCC[C@H](NC(=O)[C@H](CCCNC(=N)N)NC(C)=O)C(=O)N[C@@H](CCCNC(=N)N)C(=O)N[C@@H](Cc1ccc(O)cc1)C(=O)N[C@@H](Cc1c[nH]c2ccccc12)C(=O)N[C@H](C(=O)N[C@H](CCSC)C(N)=O)C(C)C
B3: peptide of SEQ ID NO 112 (peptide)
peptide: MRYWPM
HELM: PEPTIDE1{[CCCC(=O)[*:2]].M.R.Y.W.P.[dM].[am]}$$$$V2.0
SMILES: CCCC(=O)N[C@@H](CCSC)C(=O)N[C@@H](CCCNC(=N)N)C(=O)N[C@@H](Cc1ccc(O)cc1)C(=O)N[C@@H](Cc1c[nH]c2ccccc12)C(=O)N1CCC[C@H]1C(=O)N[C@H](CCSC)C(N)=O
B4: peptide of SEQ ID NO 106 (peptide)
peptide: RMRYWPM
HELM: PEPTIDE1{R.M.R.Y.W.P.[dM].[am]}$$$$V2.0; N-terminus assumed
SMILES: CSCC[C@H](NC(=O)[C@@H](N)CCCNC(=N)N)C(=O)N[C@@H](CCCNC(=N)N)C(=O)N[C@@H](Cc1ccc(O)cc1)C(=O)N[C@@H](Cc1c[nH]c2ccccc12)C(=O)N1CCC[C@H]1C(=O)N[C@H](CCSC)C(N)=O
B5: peptide of SEQ ID NO 114 (peptide)
peptide: MKYWPM
HELM: PEPTIDE1{[ac].M.K.Y.W.P.[dM].[am]}$$$$V2.0
SMILES: CSCC[C@H](NC(C)=O)C(=O)N[C@@H](CCCCN)C(=O)N[C@@H](Cc1ccc(O)cc1)C(=O)N[C@@H](Cc1c[nH]c2ccccc12)C(=O)N1CCC[C@H]1C(=O)N[C@H](CCSC)C(N)=O
B6: peptide of SEQ ID NO 110 (peptide)
peptide: MRYWPM
HELM: PEPTIDE1{M.R.Y.W.P.[dM].[am]}$$$$V2.0; N-terminus assumed
SMILES: CSCC[C@H](N)C(=O)N[C@@H](CCCNC(=N)N)C(=O)N[C@@H](Cc1ccc(O)cc1)C(=O)N[C@@H](Cc1c[nH]c2ccccc12)C(=O)N1CCC[C@H]1C(=O)N[C@H](CCSC)C(N)=O
B7: peptide of SEQ ID NO 118 (peptide)
peptide: WRYWPM
HELM: PEPTIDE1{W.R.Y.W.P.[dM].[am]}$$$$V2.0; N-terminus assumed
SMILES: CSCC[C@@H](NC(=O)[C@@H]1CCCN1C(=O)[C@H](Cc1c[nH]c2ccccc12)NC(=O)[C@H](Cc1ccc(O)cc1)NC(=O)[C@H](CCCNC(=N)N)NC(=O)[C@@H](N)Cc1c[nH]c2ccccc12)C(N)=O
B8: peptide of SEQ ID NO 115 (peptide)
peptide: MKYWPM
HELM: PEPTIDE1{[CCCC(=O)[*:2]].M.K.Y.W.P.[dM].[am]}$$$$V2.0
SMILES: CCCC(=O)N[C@@H](CCSC)C(=O)N[C@@H](CCCCN)C(=O)N[C@@H](Cc1ccc(O)cc1)C(=O)N[C@@H](Cc1c[nH]c2ccccc12)C(=O)N1CCC[C@H]1C(=O)N[C@H](CCSC)C(N)=O
B9: peptide of SEQ ID NO 119 (peptide)
peptide: RMRYYPM
HELM: PEPTIDE1{[ac].R.M.R.Y.Y.P.[dM].[am]}$$$$V2.0
SMILES: CSCC[C@H](NC(=O)[C@H](CCCNC(=N)N)NC(C)=O)C(=O)N[C@@H](CCCNC(=N)N)C(=O)N[C@@H](Cc1ccc(O)cc1)C(=O)N[C@@H](Cc1ccc(O)cc1)C(=O)N1CCC[C@H]1C(=O)N[C@H](CCSC)C(N)=O
B10: peptide of SEQ ID NO 109 (peptide)
peptide: RMRYWPM
HELM: PEPTIDE1{[CCCCCCCC(=O)[*:2]].R.M.R.Y.W.P.[dM].[am]}$$$$V2.0
SMILES: CCCCCCCC(=O)N[C@@H](CCCNC(=N)N)C(=O)N[C@@H](CCSC)C(=O)N[C@@H](CCCNC(=N)N)C(=O)N[C@@H](Cc1ccc(O)cc1)C(=O)N[C@@H](Cc1c[nH]c2ccccc12)C(=O)N1CCC[C@H]1C(=O)N[C@H](CCSC)C(N)=O
B11: peptide of SEQ ID NO 105 (peptide)
peptide: MRYWVM
HELM: PEPTIDE1{[ac].M.R.Y.W.V.[dM].[am]}$$$$V2.0
SMILES: CSCC[C@H](NC(C)=O)C(=O)N[C@@H](CCCNC(=N)N)C(=O)N[C@@H](Cc1ccc(O)cc1)C(=O)N[C@@H](Cc1c[nH]c2ccccc12)C(=O)N[C@H](C(=O)N[C@H](CCSC)C(N)=O)C(C)C
B12: peptide of SEQ ID NO 102 (peptide)
peptide: WRYWVM
HELM: PEPTIDE1{[ac].W.R.Y.W.V.[dM].[am]}$$$$V2.0
SMILES: CSCC[C@@H](NC(=O)[C@@H](NC(=O)[C@H](Cc1c[nH]c2ccccc12)NC(=O)[C@H](Cc1ccc(O)cc1)NC(=O)[C@H](CCCNC(=N)N)NC(=O)[C@H](Cc1c[nH]c2ccccc12)NC(C)=O)C(C)C)C(N)=O
B13: peptide of SEQ ID NO 113 (peptide)
peptide: MKYWPM
HELM: PEPTIDE1{M.K.Y.W.P.[dM].[am]}$$$$V2.0; N-terminus assumed
SMILES: CSCC[C@H](N)C(=O)N[C@@H](CCCCN)C(=O)N[C@@H](Cc1ccc(O)cc1)C(=O)N[C@@H](Cc1c[nH]c2ccccc12)C(=O)N1CCC[C@H]1C(=O)N[C@H](CCSC)C(N)=O
B14: peptide of SEQ ID NO 108 (peptide)
peptide: RMRYWPM
HELM: PEPTIDE1{[CCCC(=O)[*:2]].R.M.R.Y.W.P.[dM].[am]}$$$$V2.0
SMILES: CCCC(=O)N[C@@H](CCCNC(=N)N)C(=O)N[C@@H](CCSC)C(=O)N[C@@H](CCCNC(=N)N)C(=O)N[C@@H](Cc1ccc(O)cc1)C(=O)N[C@@H](Cc1c[nH]c2ccccc12)C(=O)N1CCC[C@H]1C(=O)N[C@H](CCSC)C(N)=O
B15: peptide of SEQ ID NO 111 (peptide)
peptide: MRYWPM
HELM: PEPTIDE1{[ac].M.R.Y.W.P.[dM].[am]}$$$$V2.0
SMILES: CSCC[C@H](NC(C)=O)C(=O)N[C@@H](CCCNC(=N)N)C(=O)N[C@@H](Cc1ccc(O)cc1)C(=O)N[C@@H](Cc1c[nH]c2ccccc12)C(=O)N1CCC[C@H]1C(=O)N[C@H](CCSC)C(N)=O
B16: peptide of SEQ ID NO 107 (peptide)
peptide: RMRYWPM
HELM: PEPTIDE1{[ac].R.M.R.Y.W.P.[dM].[am]}$$$$V2.0
SMILES: CSCC[C@H](NC(=O)[C@H](CCCNC(=N)N)NC(C)=O)C(=O)N[C@@H](CCCNC(=N)N)C(=O)N[C@@H](Cc1ccc(O)cc1)C(=O)N[C@@H](Cc1c[nH]c2ccccc12)C(=O)N1CCC[C@H]1C(=O)N[C@H](CCSC)C(N)=O

Target: T1, formyl peptide receptor 2 (FPR2)
Assay: cell-based or functional assay

| Binder | EC50 for [Ca2+] |
| --- | --- |
| B1 | < 10 nM |
| B2 | < 10 nM |
| B3 | < 10 nM |
| B4 | < 10 nM |
| B5 | < 10 nM |
| B6 | < 10 nM |
| B7 | < 10 nM |
| B8 | < 10 nM |
| B9 | < 10 nM |
| B10 | < 10 nM |
| B11 | < 10 nM |
| B12 | < 10 nM |
| B13 | < 10 nM |
| B14 | < 10 nM |
| B15 | < 10 nM |
| B16 | < 10 nM |

— patent publication US20250361268A1, “NOVEL ANTI-INFLAMMATORY PEPTIDE AND USE THEREOF” (NOVACELL TECHNOLOGY INC., priority 2022, published 2025)
